Test results from patent US20140294765A1 (COMPUGEN, published 2014).

What was measured:
[1] = molecular target: T1, mouse WT LSR protein expressed in stably transfected HEK293 or CHO-K1 cells (mouse, UniProt Q99KG5 36-594); assay: flow cytometry on stably transfected CHO-K1 cells, 8C8 at 1, 2.5, 5 and 10 ug/ml, Geo Mean (FL1)
T1 construct: Made with a C-terminal Flag tag (pcDNA3.1); Lysate for the Western blot; also called WT-Mouse LSR-flag protein
T1 sequence: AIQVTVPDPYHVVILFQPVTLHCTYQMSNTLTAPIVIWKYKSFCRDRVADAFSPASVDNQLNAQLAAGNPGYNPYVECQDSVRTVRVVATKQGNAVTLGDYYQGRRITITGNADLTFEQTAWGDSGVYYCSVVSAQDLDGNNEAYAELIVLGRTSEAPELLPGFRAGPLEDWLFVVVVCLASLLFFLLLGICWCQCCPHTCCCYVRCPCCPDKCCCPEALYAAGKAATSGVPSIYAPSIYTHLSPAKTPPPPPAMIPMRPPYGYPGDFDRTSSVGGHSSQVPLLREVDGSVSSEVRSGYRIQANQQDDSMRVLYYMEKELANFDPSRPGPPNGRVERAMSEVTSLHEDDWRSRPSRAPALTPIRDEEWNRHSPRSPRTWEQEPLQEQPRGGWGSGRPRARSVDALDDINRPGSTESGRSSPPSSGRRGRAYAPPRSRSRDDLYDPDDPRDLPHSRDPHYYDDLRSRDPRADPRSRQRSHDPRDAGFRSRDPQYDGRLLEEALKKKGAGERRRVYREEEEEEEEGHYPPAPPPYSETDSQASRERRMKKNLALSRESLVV

[2] = molecular target: T2, Peptide 2, amino acid residues 118-135 of SEQ ID NO:10 (human); assay: ELISA, hybridoma culture supernatant
T2 construct: Immunisation peptide from the ECD of human LSR
T2 peptide: CQDSVRTVRVVATKQGNA
Method: FACS analysis was subsequently carried out with purified monoclonal Ab, 8C8, using a goat anti mouse-Alexa Fluor 488 (Invitrogen cat# A10667) as secondary Ab for detection.
Culture supernatants of the hybridoma clones were analyzed by ELISA.

binding result [1]: binds
binding result [2]: no binding
B1: 8C8, mouse IgG2a monoclonal antibody against human LSR (antibody, V domains shown)
VH: DVKLVESGGGLVKLGGSLKLSCAASGFTFSSYYMSWVRQTPEKRLELVAAINSNGGSTYYPDTVKGRFTISRDNAKNTLYLQMSSLKSEDTALYYCARHDYYGSSFAMDYWGQGTSVTVSS
VL: DIQMTQTTSSLSASLGDRVTISCRASQDISNYLNWYQQKPDGTVKLLIYYTSRLHSGVPSRFSGSGSGTDYSLTISNLEQEDIATYFCQQDSKHPWTFGGGTKLEIK
notes: also called 8C8 mAb; mAb 8C8
